Test results published in patent US20220098328A1, “ANTIBODIES TO M(H)DM2/4 AND THEIR USE IN DIAGNOSING AND TREATING CANCER” (NomoCan Pharmaceuticals LLC, priority 2017, published 2022).
Numbering of substitutions follows the chain as printed. Entries after “also recorded” stand apart in the source; their conditions may differ.

B1: NMC-103: mouse monoclonal antibody of the IgG1 isotype that binds to NMC-P1 (SEQ ID NO:1); VH SEQ ID NO:36, VL SEQ ID NO:37 (antibody, V domains shown)
VH: EVQLQESGGGLVQPGGSLRLSCTTSGFTFTHYYMSWVRQPPGKALEWLGFIRNKAKGYTAEYSASVKGRFTISRDNSQSILYLQMNTLRPEDSATYYCARDIGDNWGQGTLVTVSS
VL: DIVMTQAAFSNPVTLGTSASISCRSSKNLLHSNGITYLYWYLQRPGQSPQLLISRVSNLASGVPNRFSGSESGTDFTLRISRVEAEDVGVYFCAQLLELPYTFGGGTKLEIK
modifications: mAb NMC-103 Heavy Chain Variable Region; mAb NMC-103 Light Chain Variable Region
B2: NMC-H103 (VH4/VK3): humanized NMC-103 variant, human IgG1, VH4 (SEQ ID NO:299) and VK3 (SEQ ID NO:297) (antibody, V domains shown)
VH: B1 VH with Q5V, G16P, P40A, A44G, Q78K, I80T, T87S, P90A, S93T, T95V
VL: B1 VL with A7T, A8P, F9L, N11S, T17Q, S18P, R44K, N65D, R79K, L109V
modifications: human IgG1 constant regions lacking entries; mAb NMC-H103.VH4Heavy Chain Variable Region; mAb NMC-H103.VK3Light Chain Variable Region
B3: NMC-204: mouse monoclonal antibody of the IgG3 isotype that binds to NMC-P2 (SEQ ID NO:2); VH SEQ ID NO:38, VL SEQ ID NO:39 (antibody, V domains shown)
VH: EVQLQESGSVLVRPGASVKLSCKASGDTLSGSWMHWAMQRPGQGLEWIGEIHLNRGTTNYNEKFKGKATVTVDTSSSTAYVDLSSLTSEDSAVYYCARSPGFAYWGQGTLVTVSA
VL: GIVMTQAAPSVPVTPGESVSISCRSSKSLLHSNGNSYLYWFLQRPGQSPQLLIYRMSNLASGVPDRFSGSGSGTAFTLRITRVEAEDVGVYYCMQHLEYPFTFGSGTKLEIK
modifications: mAb NMC-204 Heavy Chain Variable Region; mAb NMC-204 Light Chain Variable Region

Legend:
Experiment in all cases: Cell-ELISA on intact cells
Type in all cases: cell-based
[1] = system: human breast cancer MCF-7 cells; settings: for relative binding (reactivity) to intact cells, cell-ELISA: MCF-7, mAb 1 μg/mL, fixed, non-permeabilized cells
Description: (§1) Cell-ELISA Methodology: 8,000-10,000 cells/well of a 96-well microplate were grown overnight. The next day, unbound cells were washed off with sterile 1×PBS. The cells in each well were fixed with freshly prepared 4% buffered paraformaldehyde (pH 7.2) for 1 hour followed by 3 washes with 1×PBS. The wells were then blocked with 5% BSA in PBS (100 μl/well) for 2 hours at room temperature. Microplate wells were then washed 5 times with 300 μl of ice cold 1×PBS. MAbs NMC-103, NMC-204 or NMC-303 at 1 μg/mL in 1% BSA/PBS were then incubated with various cancer or normal untransformed cells for 2 hours at room temperature. Wells were then washed with 300 μl of ice-cold 1×PBS for 5 times and corresponding secondary antibody HRP-GaM F(ab′)2 diluted 1:2500 or 1:5000 in PBS with 1% BSA were added at 100 μl/well for 1 hour at room temperature followed by washing 5 times with 300 μl of ice-cold 1×PBS. TMB Substrate Solution (1-Step™ Ultra TMB-ELISA, ThermoFisher, Cat. No. 34028) was then added at 50 μL to each microplate well and incubated at room temperature for 30 minutes. The reaction was stopped by addition of 50 μL of stop solution (ThermoFisher, Cat. No. SS04) to each well and absorbance of each well was measured at OD450 nm. The absorbance value of each experimental well was corrected for the absorbance value obtained from wells treated with isotype-identical mAbs included in each experiment. The results are thus expressed as “relative binding”.
(§2) In a 96-well microplate, 15,000 cells/well were cultured overnight. The next day, unbound cells were washed off with sterile 1×PBS. The cells in each well were fixed with freshly prepared 4% buffered paraformaldehyde (pH 7.2) for 1 hour, followed by 3 washes with 1×PBS. The wells were then blocked with 5% BSA in PBS (100 μl/well) for 2 hours at room temperature. Microplate wells were then washed 5 times with 300 μl of ice cold 1×PBS. Monoclonal antibodies NMC-H103 (VH4/VK3) or NMC-C303 at 5 μg/mL in 1% BSA/PBS were then incubated with various cancer cells for 2 hours at room temperature. Wells were then washed with 300 μl of ice-cold 1×PBS for 5 times and corresponding secondary antibody HRP-GaH F(ab′)2 diluted 1:2000 or 1:4000 in PBS with 1% BSA were added at 100 μl/well for 1 hour at room temperature followed by washing 5 times with 300 μl of ice-cold 1×PBS. TMB Substrate Solution (1-Step™ Ultra TMB-ELISA, ThermoFisher, Cat. No. 34028) was then added at 50 μL to each microplate well and incubated at room temperature for 30 minutes. The reaction was stopped by addition of 50 μL of stop solution (ThermoFisher, Cat. No. SS04) to each well and absorbance of each well was measured at OD450 nm. The absorbance value of each experimental well was corrected for the absorbance value obtained from wells treated with isotype-identical mAbs included in each experiment.

[2] = system: human melanoma A2058 cells; settings: for relative binding (reactivity) to intact cells, cell-ELISA: A2058, mAb 1 μg/mL, fixed, non-permeabilized cells
Description: as §1, §2

[3] = system: human ovarian cancer OVCAR-3 cells; settings: for relative binding (reactivity) to intact cells, cell-ELISA: OVCAR-3 (resistant to adriamycin, melphalan, cisplatin), mAb 1 μg/mL, fixed, non-permeabilized cells
Description: as §1, §2

[4] = system: human pancreatic cancer MIA PaCa-2 cells; settings: for binding to intact, EDTA-released MiaPaCa-2 cells, cell-ELISA: EDTA 10 mmols, pH 7.2, 5 min, 37° C.; for relative binding (reactivity) to intact cells, cell-ELISA: MIA PaCa-2, mAb 1 μg/mL, fixed, non-permeabilized cells; for binding to intact MIA PaCa-2 cells when competed with NMC-P2 peptide / binding to intact MIA PaCa-2 cells when competed with soluble NMC-P1 peptide: cell-ELISA peptide competition
Description: as §1, §2

[5] = system: mouse Lewis Lung LL/2 cells; settings: for relative binding (reactivity) to intact cells, cell-ELISA: LL/2, mAb 1 μg/mL, fixed, non-permeabilized cells
Description: as §1, §2

[6] = system: mouse colon cancer MC-38 cells; settings: for relative binding (reactivity) to intact cells, cell-ELISA: MC-38, mAb 1 μg/mL, fixed, non-permeabilized cells
Description: as §1, §2

[7] = system: mouse pancreatic Panc02 cells; settings: for relative binding (reactivity) to intact cells, cell-ELISA: Panc02, mAb 1 μg/mL, fixed, non-permeabilized cells
Description: as §1, §2

[8] = system: primary patient-derived human ovarian cancer OVCA4 cells; settings: for relative binding (reactivity) to intact cells, cell-ELISA: OVCA4, mAb 1 μg/mL, fixed, non-permeabilized cells
Description: as §1, §2

Molecule | relative binding (reactivity) to intact cells, cell-ELISA [1] | relative binding (reactivity) to intact cells, cell-ELISA [2] | relative binding (reactivity) to intact cells, cell-ELISA [3] | binding to intact, EDTA-released MiaPaCa-2 cells, cell-ELISA [4] | relative binding (reactivity) to intact cells, cell-ELISA [4] | binding to intact MIA PaCa-2 cells after pre-incubation with full-length recombinant HDM2 ([4]; cell-ELISA competition) | binding to intact MIA PaCa-2 cells when competed with NMC-P2 peptide [4] | binding to intact MIA PaCa-2 cells when competed with soluble NMC-P1 peptide [4] | relative binding (reactivity) to intact cells, cell-ELISA [5] | relative binding (reactivity) to intact cells, cell-ELISA [6] | relative binding (reactivity) to intact cells, cell-ELISA [7] | relative binding (reactivity) to intact cells, cell-ELISA [8] | binding to intact, un-permeabilized cells, cell-based ELISA ([1]; MCF-7 breast cancer cells, mAb 5 μg/mL) | binding to intact, un-permeabilized cells, cell-based ELISA ([2]; mAb 5 μg/mL) | binding to intact, un-permeabilized cells, cell-based ELISA ([3]; OVCAR-3 ovarian cancer cells, mAb 5 μg/mL) | binding to intact, un-permeabilized cells, cell-based ELISA ([4]; MIAPaCa-2 pancreatic cancer cells, mAb 5 μg/mL) | OD reading / binding after pre-incubation of antibody with NMC-P1 ([5]; LL/2 cells, antibody 5 μg/mL, NMC-P1 at ×10 the concentration of mAbs) | binding to intact, un-permeabilized cells, cell-based ELISA ([6]; MC-38 colon cancer cells, mAb 5 μg/mL) | binding to intact, un-permeabilized cells, cell-based ELISA ([7]; Panc-2 pancreatic cancer cells, mAb 5 μg/mL) | binding to intact, un-permeabilized cells, cell-based ELISA ([8]; OVCA-4 ovarian cancer cells, mAb 5 μg/mL)
B1 | reactivity | reactivity | reactivity | bound | reactivity | reduced | did not have any effect | completely abolished | reactivity | reactivity | reactivity | reactivity |  |  |  |  |  |  |  | 
B2 |  |  |  |  |  |  |  |  |  |  |  |  | binding | binding | binding | binding | 1.09 OD450 (absorbance, unitless) | binding | binding | binding
B3 | reactivity | reactivity | reactivity | bound | reactivity; also recorded: reacted |  | competed | not with NMC-P1 | reactivity | reactivity | reactivity | reactivity |  |  |  |  |  |  |  | 
